Where a chain is given by its changes, count along the chain named.
B1: C1048 (antibody, V domains shown)
VH: EVQLVQSGAEVKKPGESLKISCKVSGYSFISHWIGWVRQMPGKGLEWMGIIYPGDSDTRYSPSFQGQVTISADKSISTAYLQWSSLKASDTAMYYCARRGASWELDYWGQGTLVTV
VL: QSVLTQPPSASGTPGQRVTISCSGSSSNIGSNPVSWYQQLPGPAPQLLIYGNDQRPSGVPDRFSGSKSGTSASLAISGLQSEDEADYYCAAWDDSLNGYVFGTGTKVTVL
B2: C1049 (antibody, V domains shown)
VH: EVQLVQSGAEVKKPGESLKISCKSSGYSFISHWIGWVRQMPGKGLEWMGIIWPGDSDTRYSPSFQGQVTISVDKSITTVYLQWSSLKAADTAMYYCARRGSSWEVDYWGQGTLVTVSS
VL: not shown
B3: C1050 (antibody, V domains shown)
VH: EVQLVESGGGLVQPGRSLRLSCAASGFTFDDYGMHWVRQAPGKGLEWVSGISWNGDSIGYADSVKGRFTISRDNAKTSLYLQMNRLRAEDTALYYCAKAASRSTRIGGAFDIWGQGTMVTVSS
VL: QSALTQPASVSGSPGQSITISCTGTSSDVGGYNLVSWYQQHPGKAPKLMIYEGSKRPSGVSNRFSGSKSGNTASLTISGLQAEDEADYYCCSYAYSFTNVFGTGTKVTV
B4: C1051 (antibody, V domains shown)
VH: B3 VH with A23V, M34L, G55S, T69A, K76R
VL: B3 VL with H41Y, G53D, N62H, Y95F
B5: C1046 (antibody, V domains shown)
VH: EVQLVQSGAEVKKPGESLKISCKGSGYSFTSYWIGWVRQMPGKGLEWMGIIYPGDSDTRYSPSFQGQVTISADKSISTAYLQWSSLKASDTAMYYCARMVTSGTYYYDNSGYSSSGPFDYWGQGTLVTVSS
VL: DIQLTQSPSSLSASVGDRVTITCRASQGISSALAWYQQKPGKAPKLLIYDASSLESGVPSRFSGSGSGTDFTLTISSLQPEDFATYYCQQFNNFGPGTKVDIK
B6: C1047 (antibody, V domains shown)
VH: EVQLVQSGAEVKKPGESLKISCKGSGYSFISYWIVWVRQMPGKGLEWIGIIYPGDSDTIYSPSFQGQVTLSADKSISTAYLQWSSLKASDTAIYYCAKMVTSGTSYYETRGYASSGPFDNWGQGTLVTVSS
VL: DIQLTQSPSSLSASVGDRVTITCRASQGISSALAWYQQKPGKAPKLLIYDASSLESGVPSRFSGSGSGTDFTLTISSLQPEDFATYYCQQSDNFGPGTKVDI
B7: C1058 (antibody, V domains shown)
VH: EVQLVESGGGLVQPGGSLRLSCAASGIIVSSNYMNWVRQVPGKGLEWVSVLYSGGSTFYADSVRGRFTISRDNSKNTLFLQMNSLRPEDTAVYYCARDFREGAFDIWGQGTMVTV
VL: DIQLTQSPSFLSASVGDRVTITCRASQGISSYLAWYQQKPGKAPNLLIYAASTLQSGVPSRFSGSGSGTDFTLTISSLQPEDFATYYCQQLNSYSPLFGQGTRLEIK
B8: C1059 (antibody, V domains shown)
VH: EVQLVESGGGLVQPGGSLRLSCAASGVTVSYNYMHWVRQAPGKGLEWVSVFFPGGSIFYADSVKGRFSISRDNSHNTLYLQMNNLRPEDTAVYYCARDFREGAIDLWGQGTMVTVSS
VL: B7 VL with G16E, N45K, A50G, D70E, F83S, S95P
B9: C1068 (antibody, V domains shown)
VH: QVQLVESGGGVVQPGRSLRLSCAASGFTFSTFAMHWVRQAPGKGLEWVAVTSYDGSNKYYADSVKGRFTISRDNSKNTLYLQMNSLRAEDTAVYYCARGLLWFGESEYFQHWGQGTLVTVSS
VL: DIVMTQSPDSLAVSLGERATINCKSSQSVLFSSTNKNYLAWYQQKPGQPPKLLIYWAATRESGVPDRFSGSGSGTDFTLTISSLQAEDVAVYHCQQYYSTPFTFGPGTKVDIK
B10: C1057 (antibody, V domains shown)
VH: QVQLVQSGAEVKKPGSSVKVSCKASGGTFTTYIISWVRQAPGQGLEWMGGISPMLGTANYAQKFQGGVTITADESTTTAYMEMSGLRSEDTAVYYCARAHMYCSDGSCYRQSGYFDSWGQGTLVTVSS
VL: QSALTQPRSVSGSPGQSVTITCTGTSSNVGGYKYVSWFQQHPGKAPKFLIYDVSERSSGVPDRFSGSKSGNTASLTISGLQAEDEADYYCCSYAGKYTVVFGGGTRLTV
B11: C1066 (antibody, V domains shown)
VH: EVQLVESGGGLVQPGRSLRLSCAASGFMFDDYAMHWVRQAPGKGLEWVSGINWSSADIGYVDSVKGRFTISRDNAKNSLYLQMNSLRTEDTAFYYCAKGWFGELLGGSDSWGQGTLVTVSS
VL: QLVLTQSSSASASLGSSVKLTCTLNSGHSSYIIAWHQQQPGKAPRYLMKLEGSGSYNKGSGVPDRFSGSSSGADRYLTISNLQFEDEADYYCATWDSNTQVFGGGTKLTVL
B12: C1048 (antibody, V domains shown)
VH: B1 VH
VL: B1 VL
B13: C1063 (antibody, V domains shown)
VH: EVQLVQSGAEVKKPGESLKISCKGYGNSFNNYWIAWVRQMPVKGLEWMGVINPGDSDTRYSPSFQGQVTISVDKSISTAYLQWSSLKASDTAMYYCARTWSPAAVAFFDSWGQGTLVTVS
VL: NFMLTQPHSVSESPGKTVTISCTRSSDSIGSNYVQWYQQRPGSSPTIVIYEDSQRPSGVPHRFSGSFDSSSNSASLTISGLKTEDEADYYCQSWDSGNLVFGGGTKLTVL
B14: C1055 (antibody, V domains shown)
VH: QVQLVESGGGVVQPGRSLRLSCAASGFTFSTYGMNWVRQAPGKGLEWVALILYDGSDKYYADSVKSRFTISRDNSRNTLYLQMTSLRAEDTAVYYCAKALSSTYYYDASGPDAFDIWGQGTMVTVSS
VL: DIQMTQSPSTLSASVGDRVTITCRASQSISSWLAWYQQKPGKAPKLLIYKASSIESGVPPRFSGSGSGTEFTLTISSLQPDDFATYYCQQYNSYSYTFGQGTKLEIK
B15: C1052 (antibody, V domains shown)
VH: QVQLVQSGAEVKKPGASVKVSCKVSGYTLSELSMHWVRQAPGEGLEWLGGFDPEDGETINAQKFQGRVTMTEDRSTDTAYMELSSLRSEDTAVYYCATRGRYCSSGNCYYHHWGQGTLVTVSS
VL: DIQMTQSPSTLSASVGDRVIITCRASQNIHNWLAWYQQKPGKAPKLLIYKASSLESGVPSRFSGSGSGTEFTLTISSLQPDDFATYFCQQYHSYSWTFGQGTKVEIK
B16: C1049 (antibody, V domains shown)
VH: B2 VH
VL: not shown
B17: C1050 (antibody, V domains shown)
VH: B3 VH
VL: B3 VL
B18: C1051 (antibody, V domains shown)
VH: B3 VH with A23V, M34L, G55S, T69A, K76R
VL: B3 VL with H41Y, G53D, N62H, Y95F
B19: C1065 (antibody, V domains shown)
VH: EVQLVESGGGLIQPGGSLRLSCAASGFTVSRNYMSWVRQAPGKGLEWVSVIYSGGSTFYADSVKGRFTISRDNSKNTLYLQMNSLRAEDTAVYYCARGLPTGEGWNYFDYWGQGTLVTVSS
VL: QSALTQPASVSGSPGQSITISCTGTSSDIGGYHYVSWYQQHPGKAPKLMIYDVSNRPSGISNRFSGSKSGNTASLTISGLQAEDEADYYCSSYASSSVIFGGGTKLTVL
B20: C1067 (antibody, V domains shown)
VH: QVQLVQSGAEVKKPGASVKVSCKASRDTFTTHYIHWVRQAPGQGLEWMGIINPSGGSISYAQKFQGRVTMTRDTSTSTVYMELSSLRSEDTAVYYCARGGIVPHLSNWFDPWGQGTLVTVSS
VL: EIVLTQSPGTLSLSPGERATLSCRASQSVSSSYLAWYQQKPGQAPRLLIYGASSRATGIPDRFTGSGSGTDFTLTISRLEPEDFAVYYCQQYGRSSGFTFGPGTKVDIK
B21: C1053 (antibody, V domains shown)
VH: EVQLLESGGGLVQPGGSLRLSCAASGFTFSSYAMNWVRQAPGKGLEWVSAISGSGGGTYYADSVKGRFTISRDNSKNTLYLQMDSLRAEDTAVYYCAKDVPIEQQLVPTFDYWGQGALVTVSS
VL: DIQMTQSPSSLSASVGDRVTITCRASQSISRYLNWYQQKPGKAPKLLIYGASSLQSGVPSRFSGSGSGTDFTLTISSLQPEDFATYWCQQSYSTLSITFGQGTRLEIK
B22: C1061 (antibody, V domains shown)
VH: EVQLVESGGGLVQPGGSLRLSCAASGFTFSRYDMHWVRQGTGKGLEWVSAIGTSGDTYYPDSVKGRFTISRENAKNSLYLQMNSLRAGDTAVYYCARGGLQTTTWLFDYWGQGTLVTVSS
VL: B21 VL with G50A, S67A, T85I, W87Y, T94N, L95P, S96P
B23: C1054 (antibody, V domains shown)
VH: EVQLLESGGGLVQPGGSLRLSCVVSGFTFSSYAMNWVRQAPGKGLEWVSVIGGSGDGRYYADSVKGRFTISRDNSKNTLYLQMNSLRGDDTAVYYCARDVPVEQQLVPTFDYWGQGTLVTVSS
VL: B21 VL with G50A, D70E, W87Y
B24: C1062 (antibody, V domains shown)
VH: B22 VH with R31N, G40T, S54A, D61G, I69M, Y109N
VL: B21 VL with S28T, G50A, W87Y, S93T, T94M, L95P, S96P
B25: C1060 (antibody, V domains shown)
VH: EVQLVESGGDLVQPGGSLRLSCAASEIIVSRNYMNWVRQAPGKGLEWVSIIYSGGSTFYGDSVKGRFTISRDSSKNTLYLQMHGLRVEDTAIYYCARSYGDYYIDYWGQGTLVTVSS
VL: DIQMTQSPSSVSASVGDRVTITCRTSQSISTSLAWYQQKPGKAPKLLIYAASSLQRGVPSRFSGTGSGTDFTLTISSLQPEDFATYYCQQSSSSPPLFTFGPGTKVDIK

The binders below were run against T1, SARS-COV-2 RBD (SARS-COV-2, UniProt P0DTC2 319-539) (assay: ELISA, RBD coated on plate).
T1 construct: also called WT RBD

Row | Binder | EC50 [ng/mL]
1 | B1 | 2.41
2 | B2 | 2.81
3 | B3 | 2.78
4 | B4 | 1.4
5 | B5 | 3.8
6 | B6 | 2.46

What follows are binders tested against T2, SARS-COV-2 RBD (SARS-COV-2, UniProt P0DTC2 319-539) (assay: ELISA, RBD coated on plate).
T2 construct: also called WT RBD

Row | Binder | EC50 [ng/mL]
7 | B7 | 2.13
8 | B8 | 1.69
9 | B9 | 2.48
10 | B10 | 2.12
11 | B11 | 3.01
12 | B12 | 2.41
13 | B13 | 3.04
14 | B14 | 2.71
15 | B15 | 2.64
16 | B16 | 2.81
17 | B17 | 2.78
18 | B18 | 1.4
19 | B19 | 3.52
20 | B20 | 2.93
21 | B21 | 4.13
22 | B22 | 2.26
23 | B23 | 1.64
24 | B24 | 2.61
25 | B25 | 2.67
